Experimental data as given in patent US20140213513A1 (Sanofi, priority 2012, published 2014).
*1 amine or outer side, *2 acyl side, *3 side chain or, on linkers, in order; H or OH if unused. Where no end group is shown, it is not given here. Side-chain parts run from the residue outwards. [ ]: non-standard residue; d: D form. The star is where a group is joined. γGlu = O=C(O)[C@H](CCC(=O)[*:2])N[*:1]; Palmitoyl = CCCCCCCCCCCCCCCC(=O)*; Aib = CC(C)(N)C(=O)O

T1: human GIP receptor (human, UniProt P48546 22-466)
T1 sequence (looked up): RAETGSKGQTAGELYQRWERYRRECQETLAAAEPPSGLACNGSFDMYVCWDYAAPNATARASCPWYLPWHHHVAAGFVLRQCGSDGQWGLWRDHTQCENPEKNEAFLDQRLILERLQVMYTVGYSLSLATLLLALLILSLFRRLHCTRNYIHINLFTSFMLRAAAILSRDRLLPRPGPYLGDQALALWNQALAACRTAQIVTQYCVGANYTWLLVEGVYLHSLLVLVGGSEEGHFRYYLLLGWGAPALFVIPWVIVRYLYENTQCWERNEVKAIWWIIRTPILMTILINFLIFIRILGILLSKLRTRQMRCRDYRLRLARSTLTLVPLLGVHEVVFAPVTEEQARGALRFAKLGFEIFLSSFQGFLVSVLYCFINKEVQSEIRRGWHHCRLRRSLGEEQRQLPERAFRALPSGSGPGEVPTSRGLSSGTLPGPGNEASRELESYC

B1: exendin-4 peptide analogue SEQ ID NO: 53 (peptide)
peptide: Y[Aib]QGTFTSDLSIQK([γGlu-Palmitoyl])DKRRAQDFIEWLKAGGPSSGAPPPS-NH2
modifications: N-terminus assumed
SMILES: CCCCCCCCCCCCCCCC(=O)N[C@@H](CCC(=O)NCCCC[C@H](NC(=O)[C@H](CCC(N)=O)NC(=O)[C@@H](NC(=O)[C@H](CO)NC(=O)[C@H](CC(C)C)NC(=O)[C@H](CC(=O)O)NC(=O)[C@H](CO)NC(=O)[C@@H](NC(=O)[C@H](Cc1ccccc1)NC(=O)[C@@H](NC(=O)CNC(=O)[C@H](CCC(N)=O)NC(=O)C(C)(C)NC(=O)[C@@H](N)Cc1ccc(O)cc1)[C@@H](C)O)[C@@H](C)O)[C@@H](C)CC)C(=O)N[C@@H](CC(=O)O)C(=O)N[C@@H](CCCCN)C(=O)N[C@@H](CCCNC(=N)N)C(=O)N[C@@H](CCCNC(=N)N)C(=O)N[C@@H](C)C(=O)N[C@@H](CCC(N)=O)C(=O)N[C@@H](CC(=O)O)C(=O)N[C@@H](Cc1ccccc1)C(=O)N[C@H](C(=O)N[C@@H](CCC(=O)O)C(=O)N[C@@H](Cc1c[nH]c2ccccc12)C(=O)N[C@@H](CC(C)C)C(=O)N[C@@H](CCCCN)C(=O)N[C@@H](C)C(=O)NCC(=O)NCC(=O)N1CCC[C@H]1C(=O)N[C@@H](CO)C(=O)N[C@@H](CO)C(=O)NCC(=O)N[C@@H](C)C(=O)N1CCC[C@H]1C(=O)N1CCC[C@H]1C(=O)N1CCC[C@H]1C(=O)N[C@@H](CO)C(N)=O)[C@@H](C)CC)C(=O)O
B2: exendin-4 peptide analogue SEQ ID NO: 52 (peptide)
peptide: Y[Aib]QGTFTSDLSIQK([γGlu-Palmitoyl])DSRRAQDFIEWLKAGGPSSGAPPPS-NH2
modifications: N-terminus assumed
SMILES: CCCCCCCCCCCCCCCC(=O)N[C@@H](CCC(=O)NCCCC[C@H](NC(=O)[C@H](CCC(N)=O)NC(=O)[C@@H](NC(=O)[C@H](CO)NC(=O)[C@H](CC(C)C)NC(=O)[C@H](CC(=O)O)NC(=O)[C@H](CO)NC(=O)[C@@H](NC(=O)[C@H](Cc1ccccc1)NC(=O)[C@@H](NC(=O)CNC(=O)[C@H](CCC(N)=O)NC(=O)C(C)(C)NC(=O)[C@@H](N)Cc1ccc(O)cc1)[C@@H](C)O)[C@@H](C)O)[C@@H](C)CC)C(=O)N[C@@H](CC(=O)O)C(=O)N[C@@H](CO)C(=O)N[C@@H](CCCNC(=N)N)C(=O)N[C@@H](CCCNC(=N)N)C(=O)N[C@@H](C)C(=O)N[C@@H](CCC(N)=O)C(=O)N[C@@H](CC(=O)O)C(=O)N[C@@H](Cc1ccccc1)C(=O)N[C@H](C(=O)N[C@@H](CCC(=O)O)C(=O)N[C@@H](Cc1c[nH]c2ccccc12)C(=O)N[C@@H](CC(C)C)C(=O)N[C@@H](CCCCN)C(=O)N[C@@H](C)C(=O)NCC(=O)NCC(=O)N1CCC[C@H]1C(=O)N[C@@H](CO)C(=O)N[C@@H](CO)C(=O)NCC(=O)N[C@@H](C)C(=O)N1CCC[C@H]1C(=O)N1CCC[C@H]1C(=O)N1CCC[C@H]1C(=O)N[C@@H](CO)C(N)=O)[C@@H](C)CC)C(=O)O
B3: exendin-4 peptide analogue SEQ ID NO: 54 (peptide)
peptide: Y[Aib]EGTFTSDLSIQK([γGlu-Palmitoyl])DKRKAQDFIEWLKNGGPSSGAPPPS-NH2
modifications: N-terminus assumed
SMILES: CCCCCCCCCCCCCCCC(=O)N[C@@H](CCC(=O)NCCCC[C@H](NC(=O)[C@H](CCC(N)=O)NC(=O)[C@@H](NC(=O)[C@H](CO)NC(=O)[C@H](CC(C)C)NC(=O)[C@H](CC(=O)O)NC(=O)[C@H](CO)NC(=O)[C@@H](NC(=O)[C@H](Cc1ccccc1)NC(=O)[C@@H](NC(=O)CNC(=O)[C@H](CCC(=O)O)NC(=O)C(C)(C)NC(=O)[C@@H](N)Cc1ccc(O)cc1)[C@@H](C)O)[C@@H](C)O)[C@@H](C)CC)C(=O)N[C@@H](CC(=O)O)C(=O)N[C@@H](CCCCN)C(=O)N[C@@H](CCCNC(=N)N)C(=O)N[C@@H](CCCCN)C(=O)N[C@@H](C)C(=O)N[C@@H](CCC(N)=O)C(=O)N[C@@H](CC(=O)O)C(=O)N[C@@H](Cc1ccccc1)C(=O)N[C@H](C(=O)N[C@@H](CCC(=O)O)C(=O)N[C@@H](Cc1c[nH]c2ccccc12)C(=O)N[C@@H](CC(C)C)C(=O)N[C@@H](CCCCN)C(=O)N[C@@H](CC(N)=O)C(=O)NCC(=O)NCC(=O)N1CCC[C@H]1C(=O)N[C@@H](CO)C(=O)N[C@@H](CO)C(=O)NCC(=O)N[C@@H](C)C(=O)N1CCC[C@H]1C(=O)N1CCC[C@H]1C(=O)N1CCC[C@H]1C(=O)N[C@@H](CO)C(N)=O)[C@@H](C)CC)C(=O)O
B4: exendin-4 peptide analogue SEQ ID NO: 10 (peptide)
peptide: Y[Aib]QGTFTSDLSIQK([γGlu-Palmitoyl])EKYAA[Aib]EFIEWLKNTGPSSGAPPPS-NH2
modifications: N-terminus assumed
SMILES: CCCCCCCCCCCCCCCC(=O)N[C@@H](CCC(=O)NCCCC[C@H](NC(=O)[C@H](CCC(N)=O)NC(=O)[C@@H](NC(=O)[C@H](CO)NC(=O)[C@H](CC(C)C)NC(=O)[C@H](CC(=O)O)NC(=O)[C@H](CO)NC(=O)[C@@H](NC(=O)[C@H](Cc1ccccc1)NC(=O)[C@@H](NC(=O)CNC(=O)[C@H](CCC(N)=O)NC(=O)C(C)(C)NC(=O)[C@@H](N)Cc1ccc(O)cc1)[C@@H](C)O)[C@@H](C)O)[C@@H](C)CC)C(=O)N[C@@H](CCC(=O)O)C(=O)N[C@@H](CCCCN)C(=O)N[C@@H](Cc1ccc(O)cc1)C(=O)N[C@@H](C)C(=O)N[C@@H](C)C(=O)NC(C)(C)C(=O)N[C@@H](CCC(=O)O)C(=O)N[C@@H](Cc1ccccc1)C(=O)N[C@H](C(=O)N[C@@H](CCC(=O)O)C(=O)N[C@@H](Cc1c[nH]c2ccccc12)C(=O)N[C@@H](CC(C)C)C(=O)N[C@@H](CCCCN)C(=O)N[C@@H](CC(N)=O)C(=O)N[C@H](C(=O)NCC(=O)N1CCC[C@H]1C(=O)N[C@@H](CO)C(=O)N[C@@H](CO)C(=O)NCC(=O)N[C@@H](C)C(=O)N1CCC[C@H]1C(=O)N1CCC[C@H]1C(=O)N1CCC[C@H]1C(=O)N[C@@H](CO)C(N)=O)[C@@H](C)O)[C@@H](C)CC)C(=O)O
B5: exendin-4 peptide analogue SEQ ID NO: 51 (peptide)
peptide: Y[Aib]QGTFTSDLSIQK([γGlu-Palmitoyl])DSRAQQDFIEWLKAGGPSSGAPPPS-NH2
modifications: N-terminus assumed
SMILES: CCCCCCCCCCCCCCCC(=O)N[C@@H](CCC(=O)NCCCC[C@H](NC(=O)[C@H](CCC(N)=O)NC(=O)[C@@H](NC(=O)[C@H](CO)NC(=O)[C@H](CC(C)C)NC(=O)[C@H](CC(=O)O)NC(=O)[C@H](CO)NC(=O)[C@@H](NC(=O)[C@H](Cc1ccccc1)NC(=O)[C@@H](NC(=O)CNC(=O)[C@H](CCC(N)=O)NC(=O)C(C)(C)NC(=O)[C@@H](N)Cc1ccc(O)cc1)[C@@H](C)O)[C@@H](C)O)[C@@H](C)CC)C(=O)N[C@@H](CC(=O)O)C(=O)N[C@@H](CO)C(=O)N[C@@H](CCCNC(=N)N)C(=O)N[C@@H](C)C(=O)N[C@@H](CCC(N)=O)C(=O)N[C@@H](CCC(N)=O)C(=O)N[C@@H](CC(=O)O)C(=O)N[C@@H](Cc1ccccc1)C(=O)N[C@H](C(=O)N[C@@H](CCC(=O)O)C(=O)N[C@@H](Cc1c[nH]c2ccccc12)C(=O)N[C@@H](CC(C)C)C(=O)N[C@@H](CCCCN)C(=O)N[C@@H](C)C(=O)NCC(=O)NCC(=O)N1CCC[C@H]1C(=O)N[C@@H](CO)C(=O)N[C@@H](CO)C(=O)NCC(=O)N[C@@H](C)C(=O)N1CCC[C@H]1C(=O)N1CCC[C@H]1C(=O)N1CCC[C@H]1C(=O)N[C@@H](CO)C(N)=O)[C@@H](C)CC)C(=O)O
B6: exendin-4 peptide analogue SEQ ID NO: 55 (peptide)
peptide: Y[Aib]EGTFTSDLSIQK([γGlu-Palmitoyl])DKRAAQLFIEWLKNGGPSSGAPPPS-NH2
modifications: N-terminus assumed
SMILES: CCCCCCCCCCCCCCCC(=O)N[C@@H](CCC(=O)NCCCC[C@H](NC(=O)[C@H](CCC(N)=O)NC(=O)[C@@H](NC(=O)[C@H](CO)NC(=O)[C@H](CC(C)C)NC(=O)[C@H](CC(=O)O)NC(=O)[C@H](CO)NC(=O)[C@@H](NC(=O)[C@H](Cc1ccccc1)NC(=O)[C@@H](NC(=O)CNC(=O)[C@H](CCC(=O)O)NC(=O)C(C)(C)NC(=O)[C@@H](N)Cc1ccc(O)cc1)[C@@H](C)O)[C@@H](C)O)[C@@H](C)CC)C(=O)N[C@@H](CC(=O)O)C(=O)N[C@@H](CCCCN)C(=O)N[C@@H](CCCNC(=N)N)C(=O)N[C@@H](C)C(=O)N[C@@H](C)C(=O)N[C@@H](CCC(N)=O)C(=O)N[C@@H](CC(C)C)C(=O)N[C@@H](Cc1ccccc1)C(=O)N[C@H](C(=O)N[C@@H](CCC(=O)O)C(=O)N[C@@H](Cc1c[nH]c2ccccc12)C(=O)N[C@@H](CC(C)C)C(=O)N[C@@H](CCCCN)C(=O)N[C@@H](CC(N)=O)C(=O)NCC(=O)NCC(=O)N1CCC[C@H]1C(=O)N[C@@H](CO)C(=O)N[C@@H](CO)C(=O)NCC(=O)N[C@@H](C)C(=O)N1CCC[C@H]1C(=O)N1CCC[C@H]1C(=O)N1CCC[C@H]1C(=O)N[C@@H](CO)C(N)=O)[C@@H](C)CC)C(=O)O

Each binder was assayed against human GLP-1 receptor (human, UniProt P43220 24-463) (assay: cell-based or functional assay).

In order of rising “EC50 hGLP-1 R” value:
1. B5  0.0042 nM
2. B4  0.0052 nM
3. B1  0.0136 nM
4. B6  0.0161 nM
5. B2  0.0256 nM
6. B3  0.0668 nM

What follows are binders tested against human glucagon receptor (human, UniProt P47871 26-477) (assay: cell-based or functional assay).
human glucagon receptor, sequence (P47871 26-477): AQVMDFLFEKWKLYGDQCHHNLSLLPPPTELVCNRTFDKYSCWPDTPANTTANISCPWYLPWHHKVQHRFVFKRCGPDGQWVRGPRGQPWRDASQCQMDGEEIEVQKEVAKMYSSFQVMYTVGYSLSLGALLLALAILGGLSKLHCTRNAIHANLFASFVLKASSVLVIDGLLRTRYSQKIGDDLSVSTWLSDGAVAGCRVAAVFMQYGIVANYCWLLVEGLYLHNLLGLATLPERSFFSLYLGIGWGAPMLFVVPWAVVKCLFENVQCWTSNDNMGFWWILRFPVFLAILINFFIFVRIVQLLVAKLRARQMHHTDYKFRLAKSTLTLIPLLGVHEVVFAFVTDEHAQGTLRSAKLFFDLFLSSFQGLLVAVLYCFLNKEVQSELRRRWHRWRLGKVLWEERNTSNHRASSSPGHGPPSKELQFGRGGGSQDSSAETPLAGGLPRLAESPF

In order of rising “EC50 hGLUC R” value:
1. B1  0.0079 nM
2. B2  0.0133 nM
3. B5  0.571 nM
4. B4  0.667 nM
5. B3  2.62 nM
6. B6  18.3 nM

The binders below were run against T1, human GIP receptor (assay: cell-based or functional assay).

In order of falling “EC50 hGIP R” value:
1. B2  0.182 nM
2. B3  0.105 nM
3. B1  0.0932 nM
4. B6  0.0156 nM
5. B4  0.0144 nM
6. B5  0.0063 nM
